# Source: patent publication US11485987B2, “Methods for inducing bioorthogonal reactivity” (University of Delaware, priority 2015, dated 2022)
# Legend:
# Assay type in all cases: biochemical
# [1] = substrate: CCCCNC(=O)C1=NNC(c2ccccn2)=NN1; assay: Oxidation of DHT by APEX2, UV-Vis initial rates and kinetic parameters; details: pH 7.4, 25.0 °C
# Protocol: (§1) UV-Vis and fluorescence measurements were conducted in quartz cuvettes. All reactions were conducted in phosphate buffered saline (PBS) containing 100 μM EDTA with a pH=7.4. The PBS was prepared by adding 25 mM phosphate salts (Na2HPO4 and NaH2PO4), 100 mM NaCl, 100 μM EDTA to DI water. EDTA was added to quench free metals that can oxidize DHT. The buffer was pH adjusted to 7.4 using 1 mM HCl and 1 mM NaOH. UV experiments were stirred at 25° C. in a temperature-controlled cuvette holder of the spectrophotometer. Solutions of 15 or 16 were prepared from methanol stock solutions.
# (§2) 15 or 16 (60 μM) from methanol stock solutions was added to PBS containing 100 μM EDTA. After 10s, APEX2 (SEQ ID NO:1) (275 nM) was dosed in and oxidation was monitored at 325 nm for 15 and 285 nm for 16 at 60s intervals (FIG. 10B-C).
# (§3) 16 (15 μM) DHT from methanol stock solutions was added to PBS containing 100 μM EDTA. After 10s, APEX2 (SEQ ID NO:1) (275 nM) or HRP (15 nM) was dosed in and oxidation was monitored at 285 nm at 10s intervals (FIG. 10D)
# (§4) SOD (1 μM) was added to PBS containing 100 μM EDTA. 15 or 16 (60 μM) was added from methanol stock solutions. After 10s, APEX2 (SEQ ID NO:1) or F41A APEX2 (275 nM) was dosed in and oxidation was monitored at 325 nm for 15 and 285 nm for 16 at 60s intervals.
# (§5) The initial rate of oxidation was calculated from the first 100 seconds after APEX2 (SEQ ID NO:1) or F41A APEX2 was added ([…]). In the assays where SOD was added, SOD (1 μM) was added to PBS containing 100 μM EDTA and 15 or 16 was dosed in. 10 seconds later, APEX2 (SEQ ID NO:1) or F41A APEX2 ([…]) was added and the rate of oxidation was calculated from the first 100 seconds after APEX2 (SEQ ID NO:1) or F41A APEX2 ([…]) addition. The initial rate of oxidation was adjusted to background oxidation of DHT in PBS with 100 μM EDTA. Kinetic parameters (Table 2) were determined using GraphPad's Prism 6 software from the data presented below (Table 3-4).
# [2] = substrate: O=C(O)CCCC(=O)Nc1ccc(C2=NNC(c3ccccn3)=NN2)nc1; assay: as above; details: pH 7.4, 25.0 °C
# Protocol: as §1, §2, §3, §4, §5
# [3] = substrate: CCCCNC(=O)C1=NNC(c2ccccn2)=NN1; assay: Oxidation of DHT by F41A APEX2, UV-Vis initial rates and kinetic parameters; details: other: F41A APEX2 + SOD; pH 7.4; 25.0 °C
# Protocol: as §1, §4, §5
# [4] = substrate: O=C(O)CCCC(=O)Nc1ccc(C2=NNC(c3ccccn3)=NN2)nc1; assay: as above; details: other: F41A APEX2 + SOD; pH 7.4; 25.0 °C
# Protocol: as §1, §4, §5
# [5] = substrate: O=C(O)CCC(=O)Nc1ccc(C2=NNC(c3ccccn3)=NN2)nc1; assay: Horseradish peroxidase (HRP) catalyzed oxidation of DHTz to tetrazine; details: other: HRP, peroxide-free, PBS containing EDTA (2.0 mM); pH 7.4; 25.0 °C
# Protocol: Upon addition of horseradish peroxidase (15 nM) the UV-vis spectrum was monitored every 10 seconds. With 50% conversion after 100 seconds, complete conversion of 3a to 4a is observed after 600 seconds, as evidenced by the decrease in the absorption at 292 nm and increase at 325 nm with an isosbestic point at 303 nm. Similar spectral changes are observed when 3a is electrochemically oxidized to 4a in aqueous solution, or when the oxidation of 3a to 4a is photocatalyzed by methylene blue. […] Methylene blue was considered a particularly attractive sensitizer due to its clinical relevance, low molecular weight, low toxicity, high solubility, and an absorption spectrum (λmax 665 nm) that extends to the near IR. Further, methylene blue has previously been explored for applications in photodynamic therapy based on oxidation of indole-3-acetic acid. Rose bengal (λmax 550 nm), used in a range of biomedical applications, was also identified as an excellent sensitizer. […] Methylene blue (4 μM) also catalyzed the conversion of 3a to 4a in the presence of ambient light, with 47% conversion noted after 2 h. […] The mechanism of photooxidation more likely involves electron transfer and is the subject of ongoing study.
# As a complement to these photocatalyzed reactions, the inventors observed that HRP can efficiently catalyze the oxidation of 3a in the dark at low enzyme concentration (15 nM) (FIG. 4). While HRP typically requires H2O2 as the terminal oxidant, the addition of HRP to a peroxide-free solution of 3a (30 μM) in PBS led to the rapid formation of 4a (FIG. 4, panel B). […]
# Solutions (1 mL) containing 3a (30 μm) in PBS buffer were prepared in a cuvette from stock solutions. Oxidation of 3a to 4a was monitored by recording absorbance at 325 nm every 10 seconds while either hydrogen peroxide (2 mM), HRP (15 nM) or both were added (FIG. 4, panel B). […] The oxidation rate was determined by observing the conversion of 3a to 4a in the first 10 seconds after mixing in HRP (15 nM) and subtracting the background oxidation prior to the addition of HRP.
# [6] = other: APEX2 (SEQ ID NO: 1) + SOD
# [7] = other: APEX2 (SEQ ID NO: 1), no SOD
protein,measurement,setting,value
APEX2 (SEQ ID NO:1) (Glycine max; A134P/E112K/K14D/W41F) (protein) MGKSYPTVSADYQDAVEKAKKKLRGFIAEKRCAPLMLRLAFHSAGTFDKGTKTGGPFGTIKHPAELAHSANNGLDIAVRLLEPLKAEFPILSYADFYQLAGVVAVEVTGGPKVPFHPGREDKPEPPPEGRLPDPTKGSDHLRDVFGKAMGLTDQDIVALSGGHTIGAAHKERSGFEGPWTSNPLIFDNSYFTELLSGEKEGLLQLPSDKALLSDPVFRPLVDKYAADEDAFFADYAEAHQKLSELGFADA,Km,[1]; [6],17.29 µM
same,kcat,[1]; [6],0.115 s⁻¹
same,kcat/Km,[1]; [6],6662 M⁻¹ s⁻¹
same,Km,[1]; [7],22.61 µM
same,kcat,[1]; [7],0.077 s⁻¹
same,kcat/Km,[1]; [7],3426 M⁻¹ s⁻¹
same,Km,[2]; [6],41.41 µM
same,kcat,[2]; [6],0.247 s⁻¹
same,kcat/Km,[2]; [6],5956 M⁻¹ s⁻¹
same,Km,[2]; [7],47.56 µM
same,kcat,[2]; [7],0.197 s⁻¹
same,kcat/Km,[2]; [7],4134 M⁻¹ s⁻¹
F41A APEX2 (Glycine max; A134P/E112K/K14D/W41A) (protein) MGKSYPTVSADYQDAVEKAKKKLRGFIAEKRCAPLMLRLAAHSAGTFDKGTKTGGPFGTIKHPAELAHSANNGLDIAVRLLEPLKAEFPILSYADFYQLAGVVAVEVTGGPKVPFHPGREDKPEPPPEGRLPDPTKGSDHLRDVFGKAMGLTDQDIVALSGGHTIGAAHKERSGFEGPWTSNPLIFDNSYFTELLSGEKEGLLQLPSDKALLSDPVFRPLVDKYAADEDAFFADYAEAHQKLSELGFADA,Km,[3],104.6 µM
same,kcat,[3],0.408 s⁻¹
same,kcat/Km,[3],3900 M⁻¹ s⁻¹
same,Km,[4],263 µM
same,kcat,[4],1.72 s⁻¹
same,kcat/Km,[4],6533 M⁻¹ s⁻¹
horseradish peroxidase (HRP) (Armoracia rusticana) (protein) QLTPTFYDNSCPNVSNIVRDTIVNELRSDPRIAASILRLHFHDCFVNGCDASILLDNTTSFRTEKDAFGNANSARGFPVIDRMKAAVESACPRTVSCADLLTIAAQQSVTLAGGPSWRVPLGRRDSLQAFLDLANANLPAPFFTLPQLKDSFRNVGLNRSSDLVALSGGHTFGKNQCRFIMDRLYNFSNTGLPDPTLNTTYLQTLRGLCPLNGNLSALVDFDLRTPTIFDNKYYVNLEEQKGLIQSDQELFSSPNATDTIPLVRSFANSTQTFFNAFVEAMDRMGNITPLTGTQGQIRLNCRVVNSNS,Km,[5],100 µM
same,kcat,[5],27 s⁻¹
same,kcat/Km,[5],270000 M⁻¹ s⁻¹
